The assay concerns the target Guinea pig soluble FcRn (guinea pig). The assay can be described thus: SPR.

Regarding “human IgG1 purified from myeloma (from UniProt P01857)”, the Kd (usually the equilibrium constant for the complex coming apart) is 5.2 µM. This counts as single-digit micromolar.
The substance “human IgG2 purified from myeloma (from UniProt P01859)” had a Kd of 4.2 µM.
“human IgG4 purified from myeloma (from UniProt P01861)” displayed a Kd of 6.8 µM.

(Values after publication PMC3985303.)
